Reference: the supplement of paper PMC10567573

B1: ZNF511 (parent)
chain: EPLPVERDPAAGAAPFRFVARPVR

Variants of: B1
Experiment: protein stability index of a GFP-peptide fusion (GPS, HEK-293T) (PSI 1-6); higher = more stable
Conditions: c terminus: a fixed tail appended
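Also: lentivirally expressed fusions sorted by FACS into six bins by GFP to DsRed ratio, PSI derived from sequencing read proportions per bin multiplied by bin number.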

Protein stability index, by site and new letter:
V5: K 1.77 | Q 2.37 | F 2.12 | P 2 | Y 2.1 | C 2.39 | T 1.83 | M 2.71 | D 2.54 | A 2.18 | L 2.23 | N 2.82 | R 2.85
A14: R 2.68 | K 3.16 | D 4.71 | N 2.69 | P 2.52 | Y 1.96 | E 4.11 | Q 2.91 | I 1.31 | W 2.47 | C 2.2 | T 2.29 | H 2.53 | V 1.51 | M 2.42 | L 2.44
R21: I 2.58 | A 2.46 | Q 2.96 | V 1.8 | H 2.18 | K 2.71 | E 2.35 | M 1.95 | F 2.51 | D 2.27 | W 1.41 | Y 1.76
R24: D 2.17 | S 1.81 | E 2.15 | V 1.7 | C 2.22 | M 2.37 | Y 1.78 | H 2.02 | A 2.2 | P 2.75 | Q 1.77 | I 2.33 | K 2.04 | W 1.64 | F 2.04 | N 2.18
A20: Q 2.4 | K 1.97 | E 3.03 | Y 4.17 | D 2.46 | C 1.61 | I 3.21 | M 2.49 | L 3.35 | P 2.2 | T 2.8 | W 2.56 | F 3.42 | H 2.81
A13: H 2.43 | P 2.37 | F 1.94 | Y 2.02 | G 2.48 | W 1.77 | K 2.71 | E 2.62 | I 1.66 | T 2.5
G12: H 2.64 | S 2.02 | W 1.67 | I 1.46 | Q 2.55 | Y 1.96 | L 2.4 | K 2.52 | R 2.33 | A 2.06 | D 2.65 | T 1.64 | E 2.09
A10: W 1.43 | Y 2.97 | V 1.38 | N 3.07 | E 2.99 | T 2.15 | M 2.11 | P 2.41 | I 2.44 | H 1.87 | D 2.46 | Q 2.11 | R 2.55 | S 2.23
E1: F 2.85 | V 2.27 | K 2.06 | H 2.2 | G 1.85 | I 2.12 | N 2 | C 2.64 | D 2.73 | M 2.38 | L 2.69 | W 2.35 | S 2.13 | Y 1.77 | T 2.44 | A 2.57 | P 2.23
R17: K 4.42 | G 4.86 | Y 2.98 | W 3.4 | F 2.56 | L 3.64 | V 4.21 | D 4.13 | N 3.45 | Q 4.65 | A 2.96 | C 3.88 | E 4.94 | M 3.88 | I 3.6 | T 4.19 | H 4.17
L3: W 2.64 | K 2.4 | E 2.97 | I 2.45 | V 2.23 | A 2.46 | S 3.09 | F 2.01 | Y 2.26 | T 2.3 | Q 2.64
P2: V 2.03 | F 1.72 | I 2.12 | T 2.1 | M 2.3 | G 2.75 | R 2.36 | L 2.37 | D 2.55 | E 2.23 | A 2.66 | S 2.84 | W 1.8 | Q 1.94 | Y 2.45
V19: T 3.97 | S 4.62 | F 3.88 | R 4.22 | K 4.83 | C 3.22 | Y 4.31 | W 3.65 | E 4.57 | L 3.97 | P 5.1 | A 4.47 | I 2.89 | N 4.36 | M 4.1
P15: E 3.04 | F 3.23 | W 2.32 | A 3.76 | M 3.73 | S 4.09 | D 4.21 | V 3.12 | T 3.94 | N 3.64 | R 3.78 | H 4.05 | K 4.09 | Q 3.78 | I 3.22
P9: N 2.24 | E 2.2 | A 1.72 | D 2.38 | W 1.33 | I 2.34 | M 2.73 | F 2.17 | S 2.08 | L 2.42 | K 1.46 | H 2.59 | C 2.34
A11: R 1.78 | V 1.42 | Q 2.12 | D 2.33 | S 2.43 | Y 1.88 | K 2.34 | I 3.02 | P 2.68 | F 2.02 | L 1.86 | G 1.83 | N 1.75 | C 2.18 | M 1.71 | W 1.98
V23: M 2.4 | H 2.69 | I 3 | Y 2.07 | A 2.58 | W 2.28 | E 2.4 | D 2.4 | R 2.8 | T 2.17 | P 2.83 | G 2.25 | K 2.01 | S 2.41 | N 2.13 | Q 2.95
E6: K 1.99 | W 1.56 | L 2.98 | G 2.08 | I 2.34 | N 2.5 | A 2.92 | F 3.14 | T 2.6 | V 3.22 | P 3 | Y 2.03 | D 1.68 | Q 2.52
F18: D 4.97 | W 4.43 | I 4.71 | Q 4.79 | L 4.49 | Y 4.32 | M 4.6 | K 4.87 | A 4.83 | N 4.99 | H 4.71 | R 4.91
D8: H 2.25 | P 2.4 | R 2.21 | C 2.37 | Q 2.12 | F 2.57 | T 2.99 | L 2.22 | N 3.17 | I 2.91 | M 2.46 | A 2.26 | E 2.13
R7: Q 2.65 | V 2.42 | S 2.34 | K 2.12 | W 1.05 | C 2.06 | Y 1.75 | T 3 | L 2.82 | N 2.32 | P 2.22 | F 2.1 | M 2.09 | H 2.57 | E 3.03 | A 2.25
P4: W 1.58 | S 3.43 | N 2.29 | T 2.8 | Q 1.99 | G 2.63 | Y 1.64 | F 2.52 | M 2.66 | A 2.88 | H 2.14
P22: G 1.85 | E 2.62 | Q 2.02 | R 2.8 | N 2.31 | F 3.22 | S 2.51 | Y 2.32 | C 2.17 | V 2.6 | T 1.92 | H 1.93 | D 2.77 | I 3.15 | L 2.33
F16: S 4.88 | L 4.06 | C 4.08 | V 4.62 | M 3.69 | T 4.52 | W 2.46 | R 5.16 | K 4.67 | N 4.86
